Measurements published in PMC8727025, “Src activates retrograde membrane traffic through phosphorylation of GBF1” (eLife, 2021).
Each block holds one binder with its values, some of them ahead of it.

Assays:
[1] = target: T1, GFP-GBF1-Y876F immunoprecipitated from cells expressing active SrcEG (human, UniProt Q92538-1 1-1859, Y876F); experiment: pull-down; in vitro Arf1 binding assay: NGFP-GBF1 (wild type or mutant) immunoprecipitated on GFP-trap agarose beads from cells expressing SrcKM or SrcEG, incubated with 10 µg recombinant Arf1-del17 protein for 1 hr at 4°C in the presence of GDP; washed three times with HKMT buffer (20 mM HEPES pH 7.4, 0.1 M KCl, 1 mM MgCl2, 0.5% Triton X-100); bound Arf1 by western blot; settings: both partners purified
T1 construct: GBF1, human, with Y876F; source: expressed in cells coexpressing active SrcEG, immunoprecipitated on GFP-trap agarose beads; not shown: GFP, N-terminal, kept
T1 sequence (Q92538 other isoform, or with tags, fused parts or gaps Y876F | Y876F | Y876F Y876F): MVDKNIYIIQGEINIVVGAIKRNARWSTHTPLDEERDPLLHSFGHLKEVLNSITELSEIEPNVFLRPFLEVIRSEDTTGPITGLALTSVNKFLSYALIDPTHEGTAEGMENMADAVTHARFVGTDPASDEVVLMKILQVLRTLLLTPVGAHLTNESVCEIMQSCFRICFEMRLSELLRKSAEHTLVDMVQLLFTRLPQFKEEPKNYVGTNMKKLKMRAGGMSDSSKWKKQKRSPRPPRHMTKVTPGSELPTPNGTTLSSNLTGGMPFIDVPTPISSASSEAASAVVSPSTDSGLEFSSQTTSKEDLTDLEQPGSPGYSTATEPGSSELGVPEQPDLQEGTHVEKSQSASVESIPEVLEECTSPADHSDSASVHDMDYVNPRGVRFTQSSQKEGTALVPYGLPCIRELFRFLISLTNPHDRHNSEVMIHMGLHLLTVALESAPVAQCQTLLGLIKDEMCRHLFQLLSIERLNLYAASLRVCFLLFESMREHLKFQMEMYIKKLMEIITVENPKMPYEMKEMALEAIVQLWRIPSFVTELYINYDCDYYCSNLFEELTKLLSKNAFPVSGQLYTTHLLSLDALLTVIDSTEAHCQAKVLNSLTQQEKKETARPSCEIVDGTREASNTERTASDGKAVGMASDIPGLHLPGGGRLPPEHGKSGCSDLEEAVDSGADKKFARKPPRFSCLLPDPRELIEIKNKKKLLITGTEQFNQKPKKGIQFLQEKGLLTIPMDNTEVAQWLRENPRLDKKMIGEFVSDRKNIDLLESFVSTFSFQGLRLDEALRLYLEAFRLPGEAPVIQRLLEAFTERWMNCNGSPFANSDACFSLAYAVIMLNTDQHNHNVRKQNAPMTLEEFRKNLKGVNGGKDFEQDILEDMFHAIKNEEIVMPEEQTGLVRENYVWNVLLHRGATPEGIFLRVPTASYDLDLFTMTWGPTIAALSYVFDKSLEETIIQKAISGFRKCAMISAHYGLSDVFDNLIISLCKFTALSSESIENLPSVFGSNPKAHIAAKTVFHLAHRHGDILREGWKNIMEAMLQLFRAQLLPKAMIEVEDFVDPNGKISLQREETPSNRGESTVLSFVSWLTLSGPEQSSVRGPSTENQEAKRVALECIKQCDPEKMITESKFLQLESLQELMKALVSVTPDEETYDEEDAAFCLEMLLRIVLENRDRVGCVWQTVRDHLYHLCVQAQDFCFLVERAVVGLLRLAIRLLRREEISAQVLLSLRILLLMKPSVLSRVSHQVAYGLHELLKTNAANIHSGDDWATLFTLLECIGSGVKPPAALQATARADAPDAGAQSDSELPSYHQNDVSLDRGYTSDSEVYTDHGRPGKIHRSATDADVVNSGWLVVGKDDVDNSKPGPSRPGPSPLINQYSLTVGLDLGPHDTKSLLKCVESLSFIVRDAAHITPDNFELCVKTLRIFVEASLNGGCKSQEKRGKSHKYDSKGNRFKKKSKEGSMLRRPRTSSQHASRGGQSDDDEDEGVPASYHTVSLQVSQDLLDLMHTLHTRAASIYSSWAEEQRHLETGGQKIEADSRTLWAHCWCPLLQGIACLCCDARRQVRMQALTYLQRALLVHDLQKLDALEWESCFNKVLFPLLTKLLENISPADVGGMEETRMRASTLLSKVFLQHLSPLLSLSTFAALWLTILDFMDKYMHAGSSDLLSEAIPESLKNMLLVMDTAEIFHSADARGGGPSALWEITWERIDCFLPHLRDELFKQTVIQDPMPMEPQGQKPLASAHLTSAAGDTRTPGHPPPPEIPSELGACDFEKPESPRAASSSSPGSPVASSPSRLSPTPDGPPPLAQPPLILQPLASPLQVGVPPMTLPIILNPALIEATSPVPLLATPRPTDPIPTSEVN

[2] = target: T2, GFP-GBF1-Y876.898F double mutant immunoprecipitated from cells expressing active SrcEG (human, UniProt Q92538-1 1-1859, Y876F | Y898F); experiment: as above; settings: both partners purified
T2 construct: GBF1, human, with Y876F and Y898F; source: expressed in cells coexpressing active SrcEG, immunoprecipitated on GFP-trap agarose beads; not shown: GFP, N-terminal, kept
T2 sequence (Q92538 other isoform, or with tags, fused parts or gaps Y876F | Y898F | Y876F | Y898F | mutant): as the sequence (Q92538 other isoform, or with tags, fused parts or gaps Y876F | Y876F | Y876F Y876F) above, with Y898F counted along it

[3] = target: T3, GFP-GBF1-Y898F immunoprecipitated from cells expressing active SrcEG (human, UniProt Q92538-1 1-1859, Y898F); experiment: as above; settings: both partners purified
T3 construct: GBF1, human, with Y898F; source: expressed in cells coexpressing active SrcEG, immunoprecipitated on GFP-trap agarose beads; not shown: GFP, N-terminal, kept
T3 sequence (Q92538 other isoform, or with tags, fused parts or gaps Y898F | Y898F | Y898F Y898F): as the sequence (Q92538 other isoform, or with tags, fused parts or gaps Y876F | Y876F | Y876F Y876F) above, with F876Y, Y898F counted along it

[4] = target: T4, GFP-GBF1 (wild type) immunoprecipitated from cells expressing active SrcEG (tyrosine-phosphorylated GBF1) (human, UniProt Q92538-1 1-1859, phosphotyrosine at Y876 and Y898 and at eight other tyrosines (10 in all by mass spectrometry; positions 317, 377, 515 and five tyrosines in HDS2/3 are named)); experiment: cell-based or functional assay
T4 sequence (Q92538 other isoform, or with tags, fused parts or gaps): as the sequence (Q92538 other isoform, or with tags, fused parts or gaps Y876F | Y876F | Y876F Y876F) above, with F876Y counted along it

[5] = target: T4, GFP-GBF1 (wild type) immunoprecipitated …; experiment: pull-down; in vitro Arf1 binding assay: NGFP-GBF1 immunoprecipitated on GFP-trap agarose beads from cells expressing SrcKM or SrcEG, incubated with 4 mg lysate of HEK293T cells expressing Arf1-V5 (pre-cleared) for 1 hr at 4°C in the presence of GDP; washed three times with HKMT buffer (20 mM HEPES pH 7.4, 0.1 M KCl, 1 mM MgCl2, 0.5% Triton X-100); bound Arf1 by immunoblot; settings: one partner purified

percent reduction of bound Arf1 against wild-type GFP-GBF1 from SrcEG cells [1]: 40%
percent reduction of bound Arf1 against wild-type GFP-GBF1 from SrcEG cells [2]: > 70%
percent reduction of bound Arf1 against wild-type GFP-GBF1 from SrcEG cells [3]: 60%
B1: Arf1-del17-His, recombinant Arf1 deleted of the first 17 amino acids (domain or fragment)
chain: not shown
notes: Arf1 small GTPase deleted of the first 17 amino acids; The assay was done in the presence of GDP; also called Arf1-His; recombinant Arf1-del17 protein; source: bacterially produced and purified

Arf1-GTP levels (GGA3 PBD bead pull-down of endogenous Arf1-GTP) in HEK-IS cells expressing GFP-GBF1, after imidazole activation of Src8A7F, 0 to 45 min, peak at 10 min [4]: ~3 fold
fold increase in bound Arf1-V5 against GFP-GBF1 from SrcKM cells [5]: 2 fold
B2: C-terminal V5-tagged Arf1 (Arf1-V5) (natural protein)
chain: not shown
notes: Arf1 small GTPase (ADP-ribosylation factor 1); The assay was done in the presence of GDP; source: HEK293T cells expressing Arf1-V5, in lysate (pre-cleared with agarose beads); not shown: V5, C-terminal, kept
